# Measured values published in patent US20210369822A1 (published 2021).
# Target: hERG (UniProt Q12809 1-1159)
# Assay: cell-based or functional assay
# hERG, sequence (Q12809 whole entry): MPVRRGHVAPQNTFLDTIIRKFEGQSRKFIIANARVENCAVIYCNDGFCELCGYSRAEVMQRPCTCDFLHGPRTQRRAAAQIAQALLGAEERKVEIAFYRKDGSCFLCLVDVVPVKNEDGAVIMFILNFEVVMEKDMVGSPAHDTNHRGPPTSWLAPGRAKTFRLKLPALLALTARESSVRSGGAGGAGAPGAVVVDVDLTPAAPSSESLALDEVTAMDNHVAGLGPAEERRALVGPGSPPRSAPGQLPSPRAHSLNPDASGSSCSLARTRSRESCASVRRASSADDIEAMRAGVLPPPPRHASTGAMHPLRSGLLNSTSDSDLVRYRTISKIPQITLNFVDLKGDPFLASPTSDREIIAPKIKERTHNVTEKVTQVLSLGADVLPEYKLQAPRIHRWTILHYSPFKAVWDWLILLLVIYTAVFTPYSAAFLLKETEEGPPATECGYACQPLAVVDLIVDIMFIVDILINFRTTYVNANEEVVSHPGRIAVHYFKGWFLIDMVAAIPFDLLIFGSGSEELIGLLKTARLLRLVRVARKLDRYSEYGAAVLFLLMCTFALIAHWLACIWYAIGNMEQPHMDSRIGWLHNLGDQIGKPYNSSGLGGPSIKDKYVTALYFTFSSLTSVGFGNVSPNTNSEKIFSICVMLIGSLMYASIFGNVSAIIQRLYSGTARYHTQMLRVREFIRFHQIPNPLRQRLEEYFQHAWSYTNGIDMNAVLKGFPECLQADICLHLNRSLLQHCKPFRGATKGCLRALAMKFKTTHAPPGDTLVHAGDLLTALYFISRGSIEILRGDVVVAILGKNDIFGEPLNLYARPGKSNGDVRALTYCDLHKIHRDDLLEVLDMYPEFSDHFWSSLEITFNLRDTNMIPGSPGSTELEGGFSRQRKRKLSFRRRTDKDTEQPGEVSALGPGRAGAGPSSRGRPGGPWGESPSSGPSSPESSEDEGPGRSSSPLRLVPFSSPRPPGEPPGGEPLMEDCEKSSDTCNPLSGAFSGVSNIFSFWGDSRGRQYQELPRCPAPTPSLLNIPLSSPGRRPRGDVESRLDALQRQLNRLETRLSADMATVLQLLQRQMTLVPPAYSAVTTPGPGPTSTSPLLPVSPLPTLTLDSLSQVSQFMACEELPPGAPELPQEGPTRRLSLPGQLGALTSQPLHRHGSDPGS
binder,measurement,value
VKFNKPFVFLMIEQNTK [SP16],"IC50 value (µM), hERG FastPatch assay",> 25 µM
